According to US20260008815A1, “CYCLIC PEPTIDE OR SALT THEREOF, AND USES THEREOF” (FUJIFILM Corporation, priority 2023, published 2026):
Numbered stars: 1 amine (or outer) side, 2 acyl side, 3 side chain; on linkers, the order of the positions; unused ones are H or OH. Bridge positions count the residues as written; N and C are the ends. Ends that are not written are not given here. acetyl = acetyl (haloacetyl before ring closure) on the side-chain amine, O=C(C[*:1])[*:2]; COCH2 = acetyl group that carries the bridge

Biological target: T1, Recombinant Human FGFR2 alpha (IIIc) Fc Chimera Protein (Homo sapiens, UniProt P21802)
T1 construct: Fc (chimera); purchased R&D systems 712-FR-050
Test: ELISA binding affinity of enzymatically synthesized peptide to FGFR
Details: ELISA luminescence signal at 10 nmol/L peptide, SEQ ID NO: 47 at 10 nmol/L standardized to 1; enzyme synthesis product
Experimental: The binding affinity of the peptide to FGFR was evaluated using an ELISA method.
The binding affinity of the enzymatically synthesized peptide to FGFR was measured by evaluating the amount of the peptide bound to FGFR by ELISA.
First, 5 ng of Recombinant Human FGFR2 alpha (IIIc) Fc Chimera Protein (R&D systems, 712-FR-050) was immobilized in each well of a 96-well plate, and blocked with Pierce Protein-Free (PBS) Blocking Buffer (Thermo, 37572), and a peptide diluted with Can Get Signal Immunoreaction Enhancer Solution I (TOYOBO, NKB-101) was then added and reacted at room temperature for 3 hours. After washing with 0.05% Tween 20-containing phosphate buffered saline (PBS), an anti-Myc antibody (Cell Signaling, 14038S) diluted with Can Get Signal Immunoreaction Enhancer Solution II (TOYOBO, NKB-101) was added and reacted at room temperature for 2 hours. After washing with 0.05% Tween 20-containing PBS, SuperSignal ELISA Femto Substrate (Thermo, 37075) was added, and the luminescence amount was measured. The dose-response relationship was calculated from using the difference between the luminescence amount in the well in which FGFR was immobilized and the luminescence amount in the well in which FGFR was not immobilized, and the concentration of the peptide at the time of reaction, and the binding affinity to FGFR was evaluated according to the following evaluation criteria. The evaluation result preferably satisfies the evaluation criteria A, B, or C.
In a case where a value of a luminescence signal emitted by the cyclic peptide set forth in SEQ ID NO: 47 at a reaction concentration of 10 nmol/L is standardized to 1, evaluation criteria of the luminescence signal value emitted by the cyclic peptide at a reaction concentration of 10 nmol/L is as follows. • A: 0.7 or more • B: 0.5 or more and less than 0.7 • C: 0.1 or more and less than 0.5 • D: less than 0.1.

T1 sequence (P21802 with tags, fused parts or gaps limits assumed): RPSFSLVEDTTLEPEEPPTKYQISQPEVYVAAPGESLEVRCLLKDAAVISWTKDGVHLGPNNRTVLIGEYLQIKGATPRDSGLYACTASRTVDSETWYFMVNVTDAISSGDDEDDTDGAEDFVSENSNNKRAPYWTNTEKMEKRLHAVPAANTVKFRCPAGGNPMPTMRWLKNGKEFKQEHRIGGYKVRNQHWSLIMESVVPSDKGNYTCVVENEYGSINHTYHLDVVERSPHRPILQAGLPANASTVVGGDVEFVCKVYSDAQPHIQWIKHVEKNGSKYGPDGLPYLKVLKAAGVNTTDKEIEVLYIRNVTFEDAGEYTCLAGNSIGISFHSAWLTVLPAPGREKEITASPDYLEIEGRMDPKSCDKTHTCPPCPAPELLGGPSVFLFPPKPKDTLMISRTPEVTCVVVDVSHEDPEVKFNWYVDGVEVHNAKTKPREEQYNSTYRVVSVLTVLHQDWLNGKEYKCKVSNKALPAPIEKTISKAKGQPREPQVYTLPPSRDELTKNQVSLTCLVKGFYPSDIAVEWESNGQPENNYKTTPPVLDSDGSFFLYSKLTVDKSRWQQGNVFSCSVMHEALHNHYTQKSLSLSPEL

Substance	Evaluation result of binding affinity to FGFR
34 (CRALLRGAPFHLAEC; disulfide 1-15) [compound 34]	D (less than 0.1)
35 (YRSRKYSSWYVALKR; also: cyclic peptide, ring not given here) [compound 35]	D (less than 0.1)
36 (CRALLRGAPFHLAEK(COCH2); thioether 1-15) [compound 36]	D (less than 0.1)
37 (QCQLNYWDDLQFTYYLQYK(COCH2)V; thioether 2-19) [compound 37]	A (0.7 or more)
38 (QCSYLYQYVFERYKVTVPK(COCH2)D; thioether 2-19 (inferred)) [compound 38]	A (0.7 or more)
39 (QCENWLSQDQWKYFWQYK(COCH2)I; thioether 2-18 (inferred)) [compound 39]	A (0.7 or more)
40 (DCSGNFFSKEQFHYLELFK(COCH2)K; thioether 2-19 (inferred)) [compound 40]	A (0.7 or more)
41 (LCGNYITPLQWKYFQTYK(COCH2)W; thioether 2-18 (inferred)) [compound 41]	A (0.7 or more)
42 (QCYFLSQYILERYKVHK(COCH2)L; thioether 2-17 via acetyl) [compound 42]	A (0.7 or more)
43 (HCNANFVYQQQYLYLLQYK(COCH2)L; thioether 2-19 via acetyl) [compound 43]	B (0.5 or more and less than 0.7)
44 (ACEYNYWNQVQFTFLIAFK(COCH2)R; thioether 2-19 via acetyl) [compound 44]	B (0.5 or more and less than 0.7)
45 (TCPQNFRDELQFTYFTQYKY; Description of Artificial Sequence: Cyclic peptide) [compound 45]	A (0.7 or more)
46 (SCIQQNYFWQYVFERYRYKQ; Description of Artificial Sequence: Cyclic peptide) [compound 46]	B (0.5 or more and less than 0.7)
47 (KCPQNFINPVQWRYFQHYKN; not fully specified; Description of Artificial Sequence: Cyclic peptide) [compound 47]	A (0.7 or more)
48 (GCYWNEVQYYYLQQYKQ; Description of Artificial Sequence: Cyclic peptide) [compound 48]	A (0.7 or more)
49 (SCQGNWISNTQFRYFIAYK(COCH2)T; thioether 2-19; not fully specified (residue 1); printed as s-(C)-QGNWISNTQFRYFIAY-(K(acetyl))-T) [compound 49]	A (0.7 or more)
50 (ACGQNFYHPVQFHYFIAYKQ; Description of Artificial Sequence: Cyclic peptide) [compound 50]	A (0.7 or more)
51 (VCHSNFLSAVQYAYFYQYKH; Description of Artificial Sequence: Cyclic peptide) [compound 51]	A (0.7 or more)
52 (VCNENNWSRSQYHFFLQYKY; Description of Artificial Sequence: Cyclic peptide) [compound 52]	C (0.1 or more and less than 0.5)
53 (ACPQNFINPVQWRYFQHYKN; not fully specified; Description of Artificial Sequence: Cyclic peptide) [compound 53]	A (0.7 or more)
54 (KCAQNFINPVQWRYFQHYKN; Description of Artificial Sequence: Cyclic peptide) [compound 54]	A (0.7 or more)
55 (KCPANFINPVQWRYFQHYK(COCH2)N; thioether 2-19 (inferred)) [compound 55]	A (0.7 or more)
56 (KCPQAFINPVQWRYFQHYK(COCH2)N; thioether 2-19 (inferred)) [compound 56]	C (0.1 or more and less than 0.5)

Substance	Evaluation result of binding affinity to FGFR
57 (KCPQNAINPVQWRYFQHYK(COCH2)N; thioether 2-19 (inferred)) [compound 57]	B (0.5 or more and less than 0.7)
58 (KCPQNFANPVQWRYFQHYK(COCH2)N; thioether 2-19 (inferred)) [compound 58]	B (0.5 or more and less than 0.7)
59 (KCPQNFIAPVQWRYFQHYK(COCH2)N; thioether 2-19 (inferred)) [compound 59]	B (0.5 or more and less than 0.7)
60 (KCPQNFINAVQWRYFQHYK(COCH2)N; thioether 2-19 (inferred)) [compound 60]	A (0.7 or more)
61 (KCPQNFINPAQWRYFQHYK(COCH2)N; thioether 2-19 (inferred)) [compound 61]	A (0.7 or more)
62 (KCPQNFINPVQARYFQHYK(COCH2)N; thioether 2-19 (inferred)) [compound 62]	C (0.1 or more and less than 0.5)
63 (KCPQNFINPVQWAYFQHYK(COCH2)N; thioether 2-19 (inferred)) [compound 63]	A (0.7 or more)
64 (KCPQNFINPVQWRAFQHYK(COCH2)N; thioether 2-19 (inferred)) [compound 64]	B (0.5 or more and less than 0.7)
65 (KCPQNFINPVQWRYFAHYK(COCH2)N; thioether 2-19 (inferred)) [compound 65]	A (0.7 or more)
66 (KCPQNFINPVQWRYFQAYK(COCH2)N; thioether 2-19 (inferred)) [compound 66]	A (0.7 or more)
67 (KCPQNFINPVQWRYFQHYKA; not fully specified; also: cyclic peptide, ring places not shown) [compound 67]	A (0.7 or more)
68 (KCQNFINPVQWRYFQHYK(COCH2)N; thioether 2-18 (inferred)) [compound 68]	A (0.7 or more)
69 (KCPQNFINPVQWRYFQHYAKN; not fully specified; also: cyclic peptide, ring places not shown) [compound 69]	C (0.1 or more and less than 0.5)
70 (KCAPQNFINPVQWRYFQHYK(COCH2)N; thioether 2-20 (inferred)) [compound 70]	B (0.5 or more and less than 0.7)
71 (GCPQNFINPVQWRYFQHYK(COCH2)N; thioether 2-19 (inferred)) [compound 71]	A (0.7 or more)
72 (PCPQNFINPVQWRYFQHYK(COCH2)N; thioether 2-19 (inferred)) [compound 72]	A (0.7 or more)
73 (LCPQNFINPVQWRYFQHYK(COCH2)N; thioether 2-19 (inferred)) [compound 73]	A (0.7 or more)
74 (ICPQNFINPVQWRYFQHYK(COCH2)N; thioether 2-19 (inferred)) [compound 74]	A (0.7 or more)
75 (VCPQNFINPVQWRYFQHYK(COCH2)N; thioether 2-19 (inferred)) [compound 75]	A (0.7 or more)
76 (FCPQNFINPVQWRYFQHYK(COCH2)N; thioether 2-19 (inferred)) [compound 76]	A (0.7 or more)
77 (YCPQNFINPVQWRYFQHYK(COCH2)N; thioether 2-19 (inferred)) [compound 77]	A (0.7 or more)
78 (WCPQNFINPVQWRYFQHYK(COCH2)N; thioether 2-19 (inferred)) [compound 78]	A (0.7 or more)
79 (NCPQNFINPVQWRYFQHYK(COCH2)N; thioether 2-19 (inferred)) [compound 79]	A (0.7 or more)
